Results on one substance are retold here after patent US20230235057A1.

The target in assay [1] is human TGFβ1 protein (Sinobiological, 10804-H08H) (human) (UniProt P01137). As to the kind of experiment: ELISA, plate coated with human TGFβ1, HRP-goat anti-human IgG detection.
For assay [2] the target is unchanged. As to the kind of experiment: ELISA with reference to Example 5, plate coated with human TGFβ1.
The target is the same in assay [3]. As to the kind of experiment: ELISA with reference to Example 5, reference sample.

PD1/TGFβRII fusion protein, sequence (heavy): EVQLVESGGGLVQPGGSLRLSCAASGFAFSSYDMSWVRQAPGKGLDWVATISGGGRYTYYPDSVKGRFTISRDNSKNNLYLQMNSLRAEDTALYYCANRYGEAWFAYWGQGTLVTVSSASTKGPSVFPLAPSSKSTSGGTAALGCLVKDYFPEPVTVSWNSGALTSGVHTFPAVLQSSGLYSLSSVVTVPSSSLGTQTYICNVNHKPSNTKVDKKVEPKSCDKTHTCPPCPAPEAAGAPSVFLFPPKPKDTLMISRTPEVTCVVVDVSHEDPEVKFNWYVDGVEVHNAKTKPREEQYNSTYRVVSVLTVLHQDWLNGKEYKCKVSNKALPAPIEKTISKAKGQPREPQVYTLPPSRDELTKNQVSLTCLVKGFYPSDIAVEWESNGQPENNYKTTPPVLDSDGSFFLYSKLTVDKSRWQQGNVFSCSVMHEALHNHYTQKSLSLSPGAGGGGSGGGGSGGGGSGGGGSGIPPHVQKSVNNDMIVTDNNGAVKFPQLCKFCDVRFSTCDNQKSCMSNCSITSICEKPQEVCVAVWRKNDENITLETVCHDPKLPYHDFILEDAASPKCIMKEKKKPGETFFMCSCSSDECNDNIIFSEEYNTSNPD
PD1/TGFβRII fusion protein, sequence (light): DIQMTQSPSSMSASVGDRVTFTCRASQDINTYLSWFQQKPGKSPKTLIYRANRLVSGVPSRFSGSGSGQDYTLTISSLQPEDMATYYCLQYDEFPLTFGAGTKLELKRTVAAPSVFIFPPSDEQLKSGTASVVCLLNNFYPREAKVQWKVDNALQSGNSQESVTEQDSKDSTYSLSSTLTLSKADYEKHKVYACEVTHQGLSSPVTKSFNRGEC

Take PD1/TGFβRII fusion protein: the EC50 was determined as 0.398 nM in assay [1] and 0.0617 µg/mL in assay [2]. For the same substance, the Binding activity (EC50 of control / EC50 of test sample) in assay [3] came out at 100%.
